The values below come from the DeepSol protein solubility set.

This series is described as follows: soluble on expression in E. coli; label from the status in PepcDB or PDB records.
For “MIKFNIRGENVEVTDAIRAYVEDKIGKLDKYFNDGHEVTAYVNLKVYSEKRAKVEVTLPAKNVTLRAEDTSQDMYSSIDFVEEKLERQIRKYKTRMNRKPRNAVPTGQAFGDEFAPLEKADEVAEDHVDIVRTKHVALKPMDAEEAVLQMDMLGHDFYVFTDADSNGTHVVYRRTDGRYGLIETELEHHHHHH”, the “soluble on expression in E. coli” value is listed as “soluble”.

For “MRRKIMMATLIVIAVNFIWSGQPVKACTRAVYIGPDNMVITGRTMDWKEDIQSNLYLFPRGIKRAGYNKGNTVEWISKYGSIVATGYDIGTCDGMNEKGLVASLLFLPESIYVRPNDTRPVMGISIWTQYVLDNFATVSEAVEELKKQTFRIDAPDMPNGSASTLHMAITDETGNSAVLEYIDGNLIIHEGKEYQVMTNSPRYDLQLAVNDYWKEVGGLNMLPGTNRSSDRFVRASFYIHAIPQTSDAKIAVPSVLSVMRNVSVPFGITTLDKPYISSTRWRSVSDQKNRVYYFESTLTPNLFWIDLHKVDFSPNASIKKLSLTHGEVYAGDVVKDFKDSRSFTFMFELPK”, the “soluble on expression in E. coli” value is “not soluble”.

Turning to “MAHHHHHHMYKYEKLYFFMCWKKCRFNNLTKVFLHSSNDYYNNLNVIKKEKGIFEKLLCIGNYNVDNFCFDKELYEKYRECIKNDYEKIRIKLKERKQNEYNNIHSKNLEHNESNICNNNNNNNINVYESYLYNIIQNNDYKDILISDVIYENGKNILCIGEANLSFSLLLQKNLNLCKVVSTSREDESVLIKKFGKKYFSKNLKLLESSGGIYIPNMNVENLSNQFLKNTFDIIIFNFPFVLPTKECIEKKWNIKLEREEIYSDNLKNETNSNNNSNSNNNNKSNNNNGNNNSSNNVYIKYYKKTEYFLLNKLIYHLFKCASHLLKNEGFLHIRLNDKYLTCSFPKNMSLSFLQKIDFSNSYIIYKSLKYVPSLFDCTFLNYEDKKKEKTKNNVIFTSSGKKIFKSFKMKHTSTLIFQKI”, the “soluble on expression in E. coli” value is given as “not soluble”.

As to “MGSDKIHHHHHHMTLGTKLSVDQEYLKSFSEKHQEPAWLKNLRLQALEQAEDLPMPKPDKTKITNWNFTNFAKHTVDNEPLSSLEDLTDEVKALIDIENEDKTLYVQRDQTPAHLSLSQELKDKGVIFTDILTAAREHSDLVEKYFMKDGVKVDEHKLTALHAALVNGGAFLYVPKNVQVETPVQAVYVHESNDTALFNHVLIVAEDHSSVTYVENYISTVNPKDAVFNIISEVITGDNASVTYGAVDNLSSGVTTYVNRRGAARGRDSKIEWALGLMNDGDTISENTTNLYGDGTYGDTKTVVVGRGEQTENFTTQIIHFGKASEGYILKHGVMKDSASSIFNGIGKIEHGASKANAEQESRVLMLSEKARGDANPILLIDEDDVTAGHAASVGRVDPIQLYYLMSRGIPKEEAERLVIYGFLAPVVNELPIEGVKKQLVSVIERKVK”, the “soluble on expression in E. coli” value is on record as “not soluble”.

With “MIRVLLADDHALFRQGLKSLLEAEGDFRVVGEAKDGWEAMRHALETKPDVILMDIQMPGLDGVQATQAILKEWPQAKVIMLTMYRQDAYVFEAVKAGARGYLLKDVDARELVDAIRRVHAGEVLLDAELAGHIIQDFRAKKEASQPLHAELSEREVQILRLVAQGYTNQEIAAELQLSEKTVRNRLSEIFQKLHLNNRTQAALYAIREGLARPEE”, the “soluble on expression in E. coli” value was “soluble”.

Take “MGHHHHHHSHMSQQRPDRIKQMLHYLWQHRHLSTQQAMELFGYAEATVRRDFQYIVNQYPGMIRGHGCLDFDDSTDDKEYVFDVKRTLQSVAKREIAALARTMIKDGDCFFLDSGSTCLELAKCLADARVKVICNDIKIANELGCFPHVESYIIGGLIRPGYFSVGESLALEMINAFSVERAFISCDALSLETGITNATMFEVGVKTRIIQRSREVILMADHSKFDAVEPHAVATLSCIKTIISDSGLPETIAQRYQRAGCQLFLPHSIK”: the “soluble on expression in E. coli” value is “soluble”.

On to “MGSDKIHHHHHHYTEQPIDLVPTQPLPNASFDNFKLTCSNTKFADDLNQMTGFTKPASRELSVTFFPDLNGDVVAIDYRHYSASFKKGAKLLHKPIVWHINQATTKTTFKPNTWCLRCLWSTKPVDT”, for which the “soluble on expression in E. coli” value was “soluble”.

Turning to “MTKTEPNNAQLDWLESESIHIIREVAAECENPALLFSGGKDSVVLLALACKAFRLGSRPVKLPFPLVHIDTGHNYPEVIAFRDAQAAKLNARLIVGRVEDSIAKGTVVLRKETDSRNAAQAVTLLETIEANGFDALMGGARRDEEKARAKERIFSFRDEFGQWDPKAQRPELWSLYNTRLHKGENMRVFPISNWTELDIWQYIARENLELPPIYYSHRREVVRRRGLLVPVTPLTPKMPSETSEILDVRFRTVGDISCTCPVESTASTPTEIIRETAVADISERSATRLDDQASEAAMEKRKKEGYF”, the “soluble on expression in E. coli” value was “not soluble”.

Consider “MGSDKIHHHHHHMEAVKTGIEGFDDIFGGFYRGQIILIAGNPGSGKTTFCAKFLYEGARRFGENGLYISIGESKEEFYEYMKKLGMDFEKLEKTGSFKYVEMLAPTSEDALMQLSRELTKNALELKATRIVIDSISPILSMNPETARAILHNALKTISRELKSVVLMTEEMPIGETRIGQGIEEFVVDGVIVLRLEVPEAGAPVRTMSVLKLRGKPLDRAVYNFEIGPPSGVRVLMHGIEELESNIDFNNKIATGIDGFDELLGGGIIRGTATAFVGPSGGGKTVLMLSAAANVAINGENVTYISFEEPRQQIEETLKFLGYGEVEGLEILSLNPRMISLRALYDILSKTVLDHRTMLFIDGLNAIRREFGEAFHRVVRDVVFQMKKNGITVVISLIGGTIKETLLSTIVDNVVELRVVEKDGELRREIAVRKARMSRASNEVKRLVFDGKPAVR”, for which the “soluble on expression in E. coli” value is given as “not soluble”.

Regarding “MGSDKIHHHHHHMKNFVLDTNVLLYDPQAIFKFEENNIIIPITVIEEVDRFKKDMNETGRNARQVSRYLDDMRKIGSLSSGITLETGGMLRVEMYEEKIMKRLPPELREERGDNRILAVAVKILEENGGAPVVFVTKDTNLRIKADAIGLKAEDYESDKVDIEELYPGFTEIDVAADTVDRFHGQGWVELPGQTFFPNQCVTLRDEANPSHTALGKYRVGDGKITPLIKTGKEGVWSIFPRNREQAFAFDLLLDDSIKLVTLVGKAGTGKTLLAIAAGLHKTAEENVFNRLLVSRPVFPMGRDLGFLPGDIEEKLAPWMQPIFDNVELLLSGHEAEKRHSKGYKELMAMGIMEIEPLTYIRGRSIPNQFMIVDEAQNLTPHEIKTIITRAGEGTKIVLTGDPYQIDNPYVDASSNGLTYVVERFKEQAIAGHVTMTKGERSDLAELAANLL”, the “soluble on expression in E. coli” value was “not soluble”.

“DSDLYAELRCLCIKTTSGIHPKNIQSLEVIGKGTHCNQVEVIATLKDGRKICLDPDAPRIKKIVQKKLAGDESAD”: the “soluble on expression in E. coli” value is “soluble”.

For the sequence “MAGQTLKGPWNNLERLAENTGEFQEVVRAFYDTLDAARSSIRVVRVERVSHPLLQQQYELYRERLLQRCERRPVEQVLYHGTTAPAVPDICAHGFNRSFCGRNATVYGKGVYFAKRASLSVQDRYSPPNADGHKAVFVARVLTGDYGQGRRGLRAPPLRGPGHVLLRYDSAMDCICQPSIFVIFHDTQALPTHLITCEHVPRASPDDPSGAHHHHHH”, the “soluble on expression in E. coli” value is “soluble”.

Regarding “MSASVKESLQLQLLEMEMLFSMFPNQGEVKLEDVNALTNIKRYLEGTREALPPKIEFVITLQIEEPKVKIDLQVTMPHSYPYVALQLFGRSSELDRHQQLLLNKGLTSYIGTFDPGELCVCAAIQWLQDNSASYFLNRKLVYEPSTQAKPVKNTFLRMWIYSHHIYQQDLRKKILDVGKRLDVTGFCMTGKPGIICVEGFKEHCEEFWHTIRYPNWKHISCKHAESVETEGNGEDLRLFHSFEELLLEAHGDYGLRNDYHMNLGQFLEFLKKHKSEHVFQILFGIESKSSDSLEHHHHHH”, the “soluble on expression in E. coli” value is on record as “soluble”.

“ADRNLRDLLAPWVPDAPSRALREMTLDSRVAAAGDLFVAVVGHQADGRRYIPQAIAQGVAAIIAEAKDEATDGEIREMHGVPVIYLSQLNERLSALAGRFYHEPSDNLRLVGVTGTNGKTTTTQLLAQWSQLLGEISAVMGTVGNGLLGKVIPTENTTGSAVDVQHELAGLVDQGATFCAMEVSSHGLVQHRVAALKFAASVFTNLSRDHLDYHGDMEHYEAAKWLLYSEHHCGQAIINADDEVGRRWLAKLPDAVAVSMEDHINPNCHGRWLKATEVNYHDSGATIRFSSSWGDGEIESHLMGAFNVSNLLLALATLLALGYPLADLLKTAARLQPVCGRMEVFTAPGKPTVVVDYAHTPDALEKALQAARLHCAGKLWCVFGCGGDRDKGKRPLMGAIAEEFADVAVVTDDNPRTEEPRAIINDILAGMLDAGHAKVMEGRAEAVTCAVMQAKENDVVLVAGKGHEDYQIVGNQRLDYSDRVTVARLLGVIARSHH”: the “soluble on expression in E. coli” value is on record as “soluble”.
